Source: US20220411491A1 (Hoffmann-La Roche, published 2022)
Substitutions are numbered along the chain they refer to.

B1: B72-TCB (bispecific antibody, human IgG1, kappa, L234A L235A)
heavy 1: not shown
light 1: EVQLVESGGGLVQPGGSLRLSCAASGFTFNTYAMNWVRQAPGKGLEWVARIRSKYNNYATYYAASVKGRFTISRDDSKNSLYLQMNSLKTEDTAVYYCARHGNFGNSYVSWFAYWGQGTLVTVSSASVAAPSVFIFPPSDEQLKSGTASVVCLLNNFYPREAKVQWKVDNALQSGNSQESVTEQDSKDSTYSLSSTLTLSKADYEKHKVYACEVTHQGLSSPVTKSFNRGEC
heavy 2: QVQLVQSGAEVKKPGASVKVSCKASGYSFTGYTMNWVRQAPGQGLEWMGLINPYNSDTNYAQKLQGRVTMTTDTSTSTAYMELRSLRSDDTAVYYCARVALRVALDYWGQGTLVTVSSASTKGPSVFPLAPSSKSTSGGTAALGCLVEDYFPEPVTVSWNSGALTSGVHTFPAVLQSSGLYSLSSVVTVPSSSLGTQTYICNVNHKPSNTKVDEKVEPKSCDKTHTCPPCPAPEAAGGPSVFLFPPKPKDTLMISRTPEVTCVVVDVSHEDPEVKFNWYVDGVEVHNAKTKPREEQYNSTYRVVSVLTVLHQDWLNGKEYKCKVSNKALGAPIEKTISKAKGQPREPQVCTLPPSRDELTKNQVSLSCAVKGFYPSDIAVEWESNGQPENNYKTTPPVLDSDGSFFLVSKLTVDKSRWQQGNVFSCSVMHEALHNHYTQKSLSLSPGK
light 2: DIQMTQSPSSLSASVGDRVTITCKASQNVATHVGWYQQKPGKAPKRLIYSASYRYSGVPSRFSGSGSGTEFTLTISNLQPEDFATYYCQQYNRYPYTFGQGTKLEIKRTVAAPSVFIFPPSDRKLKSGTASVVCLLNNFYPREAKVQWKVDNALQSGNSQESVTEQDSKDSTYSLSSTLTLSKADYEKHKVYACEVTHQGLSSPVTKSFNRGEC
B2: P1AE5706 (antibody, V domains shown)
VH: ELQLEQSGGGLVQPGGSLTLSCAASGFTFSKYAMAWVRQAPTKGLEWVASISTGGVNTYYRDSVKARFTISRDNAKNTQYLQMDSLRSEDTATYYCATHTGDYFDYWGQGVMVTVSS
VL: DIVLTQSPALAVSPGQRATISCRASQSVSISGINLMNWYQQKPGQQPKLLIYHASILASGIPTRFSGSGSGTDFTLTIDPVQADDIATYYCQQTRESPLTFGSGTNLEIK
B3: P1AE5719 (antibody, V domains shown)
VH: B2 VH with E5L, Q6E, T19R, T42G, Q79L, D84N, S88A, T93V, V111T
VL: DIQMTQSPSSLSASVGDRVTITCRASQSVSISGINLMNWYQQKPGQQPKLLIYHASILASGVPSRFSGSGSGTDFTLTISSLQPEDFATYYCQQTRESPLTFGQGTRLEIK
B4: P1AE5718 (antibody, V domains shown)
VH: B2 VH with E5L, Q6E, T19R, T42G, Q79L, D84N, S88A, T93V, V111T
VL: B3 VL with Q46K
B5: P1AE5707 (antibody, V domains shown)
VH: EVQLLESGGGLVQPGGSLRLSCAASGFTFSKYAMAWVRQAPGKGLEWVASISTGGVNTYYRDSVKARFTISRDNSKNTLYLQMNSLRAEDTAVYYCATHTGDYFDYWGQGTMVTVSS
VL: DIVMTQSPDSLAVSLGERATINCRASQSVSISGINLMNWYQQKPGQQPKLLIYHASILASGVPDRFSGSGSGTDFTLTISSLQAEDVAVYYCQQTRESPLTFGQGTRLEIK
B6: P1AE5709 (antibody, V domains shown)
VH: B5 VH
VL: EIVLTQSPGTLSLSPGERATLSCRASQSVSISGINLMNWYQQKPGQQPRLLIYHASILASGIPDRFSGSGSGTDFTLTISRLEPEDFAVYYCQQTRESPLTFGQGTRLEIK
B7: P1AE5724 (antibody, V domains shown)
VH: B5 VH with R61A, A66G
VL: B3 VL with Q46K
B8: P1AE5712 (antibody, V domains shown)
VH: B5 VH
VL: B3 VL with Q46K
B9: P1AE5729 (antibody, V domains shown)
VH: B5 VH with V2L, R61A, A66G, S75A
VL: B6 VL with R49K
B10: P1AE5708 (antibody, V domains shown)
VH: B5 VH
VL: B5 VL with R24K, A25S
B11: P1AE5722 (antibody, V domains shown)
VH: B5 VH with R61A, A66G
VL: B6 VL
B12: P1AE5714 (antibody, V domains shown)
VH: B5 VH with V2L, S75A
VL: B5 VL
B13: P1AE5720 (antibody, V domains shown)
VH: B5 VH with R61A, A66G
VL: B5 VL
B14: P1AE5716 (antibody, V domains shown)
VH: B5 VH with V2L, S75A
VL: B6 VL
B15: P1AE5726 (antibody, V domains shown)
VH: B5 VH with V2L, R61A, A66G, S75A
VL: B5 VL
B16: P1AE5723 (antibody, V domains shown)
VH: B5 VH with R61A, A66G
VL: B6 VL with R49K
B17: P1AE5717 (antibody, V domains shown)
VH: B5 VH with V2L, S75A
VL: B6 VL with R49K
B18: P1AE5710 (antibody, V domains shown)
VH: B5 VH
VL: B6 VL with R49K
B19: P1AE5713 (antibody, V domains shown)
VH: B5 VH
VL: B3 VL
B20: P1AE5727 (antibody, V domains shown)
VH: B5 VH with V2L, R61A, A66G, S75A
VL: B5 VL with R24K, A25S
B21: P1AE5721 (antibody, V domains shown)
VH: B5 VH with R61A, A66G
VL: B5 VL with R24K, A25S
B22: P1AE5728 (antibody, V domains shown)
VH: B5 VH with V2L, R61A, A66G, S75A
VL: B6 VL
B23: P1AE5715 (antibody, V domains shown)
VH: B5 VH with V2L, S75A
VL: B5 VL with R24K, A25S

Each binder was assayed against T1, human GPRC5D (human, UniProt Q9NZD1 1-345) (assay: cell-based or functional assay).
T1 sequence (Q9NZD1 whole entry): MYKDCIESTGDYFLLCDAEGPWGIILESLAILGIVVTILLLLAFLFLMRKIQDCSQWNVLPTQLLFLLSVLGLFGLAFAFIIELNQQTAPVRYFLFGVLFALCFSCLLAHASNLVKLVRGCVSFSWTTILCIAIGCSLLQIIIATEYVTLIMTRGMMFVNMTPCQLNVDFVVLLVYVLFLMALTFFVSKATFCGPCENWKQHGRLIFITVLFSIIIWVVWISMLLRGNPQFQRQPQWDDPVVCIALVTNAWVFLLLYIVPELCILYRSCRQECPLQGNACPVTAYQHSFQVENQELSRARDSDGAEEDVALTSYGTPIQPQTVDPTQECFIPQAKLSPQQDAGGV
B1 was tested, and the “EC50 of in vitro killing, AMO-1” value was 0.109 nM, the “EC50 of in vitro killing, EJM” value was 0.06 nM and the “EC50 of in vitro killing, L363” value was 0.058 nM. The “EC50 of in vitro killing, MOLP-2” value was 0.124 nM, the “EC50 of in vitro killing, NCI-H929” value was 0.058 nM and the “EC50 of in vitro killing, OPM-2” value was 0.171 nM. For the same binder, the “EC50 of in vitro killing, RPMI” value was 0.193 nM.

Target: T1, human GPRC5D
Assay: cell-based or functional assay
Remark: another data set of the same source
In the case of B2, the “CAR-J2 EC50” value is reported as 3.9 ng/mL.
B3 was tested, and the “CAR-J2 EC50” value was 2.8 ng/mL.
With B4 the “CAR-J2 EC50” value was 105 ng/mL.
For B5, the “CAR-J2 EC50” value was 42.4 ng/mL.
In the case of B6, the “CAR-J2 EC50” value is reported as 59.4 ng/mL.
With B7 the “CAR-J2 EC50” value was 3.6 ng/mL.
With B8 the “CAR-J2 EC50” value was 16.1 ng/mL.
B9 was tested, and the “CAR-J2 EC50” value was 61.3 ng/mL.
With B10 the “CAR-J2 EC50” value was 456 ng/mL.
For B11, the “CAR-J2 EC50” value was 4.6 ng/mL.
For B12, the “CAR-J2 EC50” value was 5.5 ng/mL.
For B13, the “CAR-J2 EC50” value was 6.3 ng/mL.
For B14, the “CAR-J2 EC50” value was 3.3 ng/mL.
In the case of B15, the “CAR-J2 EC50” value is reported as 37.8 ng/mL.
With B16 the “CAR-J2 EC50” value was 3.7 ng/mL.
In the case of B17, the “CAR-J2 EC50” value is reported as 79.9 ng/mL.
In the case of B18, the “CAR-J2 EC50” value is reported as 3.5 ng/mL.
B19 was tested, and the “CAR-J2 EC50” value was 76.9 ng/mL.
In the case of B20, the “CAR-J2 EC50” value is reported as 6.3 ng/mL.
B21 was tested, and the “CAR-J2 EC50” value was 25 ng/mL.
In the case of B22, the “CAR-J2 EC50” value is reported as 5.6 ng/mL.
For B23, the “CAR-J2 EC50” value was 3.6 ng/mL.
